± gives the uncertainty stated by the source.
Test: self-splicing fitness, log relative to wild type (ln ratio); higher = more splicing; Tetrahymena group I intron in knt gene, E. coli kanamycin selection, DiMSum; sequences stand for … in CUCUCU…GGAGGGAAAAGUUAUCAGGCAUGCACCUGGUAGCUAGUCUUUAAACCAAUAGAUUGCAUCGGUUUAAAAGGCAAGACCGUCAAAUUGCGGGAAAGGGGUCAACAGCCGUUCAGUACCAAGUCUCAGGGGAAACUUUGAGAUGGCCUUGCAAAGGGUAUGGUAAUAAGCUGACGGACAUGGUCCUAACCACGCAGCCAAGUCCUAAGUCAACAGAUCUUCUGUUGAUAUGGAUGCAGUUCACAGACUAAAUGUCGGUCGGGGAAGAUGUAUUCUUCUCAUAAGAUAUAGUCGGACCUCUCCUUAAUGGGAGCUAGCGGAUGAAGUGAUGCAACACUGGAGCCGCUGGGAACUAAUUUGUAUGCGAAAGUAUAUUGAUUAGUUUUGGAGUACUCGUGGUCG
In short: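 Colonies from six replicate transformations of E. coli BL21(DE3) were pooled and amplicon-sequenced on an Illumina HiSeq 2500. The library placed an intron with all eight P1ex-region nucleotides randomised inside the knt kanamycin-resistance gene on pET-22b(+), and cells grew overnight at 37°C or 30°C on LB agar with or without 25 μg/mL kanamycin (plus 100 μg/mL carbenicillin, 50 μM IPTG, 0.2% rhamnose). Fitness is the DiMSum error-weighted combination of wild-type-normalised replicate fold changes, kanamycin versus none.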

| Sequence | self-splicing fitness (ln) (30 °C) | self-splicing fitness (ln) (37 °C) |
| --- | --- | --- |
| CGAUAGCAAUAUUACGUAUU | -3.53 ± 0.25 | -2.61 ± 0.24 |
| UCGCAGCAAUAUUACGAAGU | -3.51 ± 0.2 | -2.53 ± 0.15 |
| UGACAGCAAUAUUACGAUAG | -1.49 ± 0.07 | -0.347 ± 0.076 |
| UCCAAGCAAUAUUACGUAUU | -3.44 ± 0.19 | -2.46 ± 0.21 |
| GUUGAGCAAUAUUACGUGUA | -3 ± 0.21 | – |
| GCUGAGCAAUAUUACGCCGC | -2.62 ± 0.34 | – |
| AGUAAGCAAUAUUACGGCGC | -1.02 ± 0.11 | -0.433 ± 0.13 |
| GUUAAGCAAUAUUACGACGC | -1.05 ± 0.24 | -0.36 ± 0.21 |
| ACGAAGCAAUAUUACGAUGG | -2.34 ± 0.13 | -1.17 ± 0.12 |
| CGGUAGCAAUAUUACGUGCG | -1.41 ± 0.12 | -0.87 ± 0.12 |
| GCGCAGCAAUAUUACGCACC | -3.7 ± 0.2 | -2.41 ± 0.25 |
| AGGGAGCAAUAUUACGGUUA | -2.53 ± 0.17 | -2.98 ± 0.28 |
| UAGGAGCAAUAUUACGACAU | -3.83 ± 0.039 | -2.8 ± 0.047 |
| UAUCAGCAAUAUUACGGUAC | -3.28 ± 0.26 | -2.54 ± 0.3 |
| UAUAAGCAAUAUUACGUGCU | -2.56 ± 0.16 | -1.32 ± 0.15 |
| UACGAGCAAUAUUACGUUAA | -3.08 ± 0.26 | -1.57 ± 0.14 |
| CUGGAGCAAUAUUACGAAUG | -1.88 ± 0.12 | 0.0741 ± 0.15 |
| GUCCAGCAAUAUUACGCGGG | -4.23 ± 0.26 | -2.92 ± 0.24 |
| UGAGAGCAAUAUUACGAGAA | – | -1.39 ± 0.43 |
| UCCAAGCAAUAUUACGCUGA | -1.43 ± 0.092 | -1.07 ± 0.085 |
| CUCAAGCAAUAUUACGUCGA | -3.37 ± 0.31 | -1.41 ± 0.18 |
| GAUUAGCAAUAUUACGAAAC | -2.38 ± 0.16 | -1.61 ± 0.17 |
| GGAGAGCAAUAUUACGGAUU | – | -1.62 ± 0.22 |
| GAACAGCAAUAUUACGGCGA | -1.38 ± 0.09 | -0.318 ± 0.077 |
| UGGCAGCAAUAUUACGGCCU | -1.91 ± 0.18 | -1.57 ± 0.18 |

| Sequence | self-splicing fitness (ln) (30 °C) | self-splicing fitness (ln) (37 °C) |
| --- | --- | --- |
| GGGAAGCAAUAUUACGACUG | -0.222 ± 0.088 | -0.457 ± 0.11 |
| ACGCAGCAAUAUUACGCCUA | -0.946 ± 0.088 | 0.0129 ± 0.093 |
| AGUAAGCAAUAUUACGGGGC | -3.29 ± 0.36 | -2.29 ± 0.34 |
| GUUGAGCAAUAUUACGUAAU | -1.76 ± 0.093 | -0.913 ± 0.12 |
| CUGGAGCAAUAUUACGGUCG | -1.2 ± 0.087 | -0.266 ± 0.12 |
| AAAAAGCAAUAUUACGACAA | -0.322 ± 0.1 | 0.331 ± 0.12 |
| GCGUAGCAAUAUUACGAUCA | -0.167 ± 0.14 | 0.0769 ± 0.14 |
| UUUGAGCAAUAUUACGAAGC | -3.58 ± 0.42 | -1.64 ± 0.33 |
| AGCCAGCAAUAUUACGCCUC | – | -0.728 ± 0.44 |
| GUACAGCAAUAUUACGAGGU | -4.68 ± 0.29 | -1.97 ± 0.16 |
| CGGCAGCAAUAUUACGCCGU | -3.6 ± 0.29 | -2.29 ± 0.19 |
| AUGUAGCAAUAUUACGAAUG | -2.89 ± 0.28 | -2.37 ± 0.29 |
| ACCAAGCAAUAUUACGAUGU | -1.7 ± 0.057 | -1.03 ± 0.073 |
| AGUUAGCAAUAUUACGCCAU | -3.41 ± 0.21 | -1.53 ± 0.14 |
| UACAAGCAAUAUUACGUGGC | -3 ± 0.14 | -1.94 ± 0.22 |
| CAAGAGCAAUAUUACGGGGU | -4.66 ± 0.2 | -2.61 ± 0.19 |
| AGCAAGCAAUAUUACGUAAA | -2.29 ± 0.14 | -0.968 ± 0.15 |
| ACCAAGCAAUAUUACGUGAG | -1.19 ± 0.07 | -0.649 ± 0.086 |
| CAGAAGCAAUAUUACGGCUC | -2.64 ± 0.28 | -0.31 ± 0.21 |
| UAUCAGCAAUAUUACGAAAU | -2.9 ± 0.16 | -0.792 ± 0.15 |
| GUUAAGCAAUAUUACGUGCC | -1.39 ± 0.25 | -0.253 ± 0.36 |
| CUAUAGCAAUAUUACGUACG | 0.0512 ± 0.15 | -0.136 ± 0.14 |
| AGACAGCAAUAUUACGUGCU | -3.14 ± 0.12 | -1.56 ± 0.085 |
| CUUAAGCAAUAUUACGGGUA | -2.7 ± 0.22 | -2.75 ± 0.38 |
| UACAAGCAAUAUUACGUAGA | -2.84 ± 0.14 | -1.46 ± 0.13 |

| Sequence | self-splicing fitness (ln) (30 °C) | self-splicing fitness (ln) (37 °C) |
| --- | --- | --- |
| GGAUAGCAAUAUUACGGAUU | -1.79 ± 0.12 | -0.787 ± 0.12 |
| CUAUAGCAAUAUUACGACUU | -2.98 ± 0.3 | -1.54 ± 0.34 |
| AUUGAGCAAUAUUACGCAGA | – | -2.45 ± 0.41 |
| AAAGAGCAAUAUUACGGUGC | -3.49 ± 0.17 | -1.54 ± 0.15 |
| CGAAAGCAAUAUUACGUAGG | -0.721 ± 0.067 | -0.28 ± 0.096 |
| CAUGAGCAAUAUUACGGGAA | – | -1.66 ± 0.25 |
| ACCCAGCAAUAUUACGGUAA | -1.26 ± 0.09 | -0.477 ± 0.087 |
| CGCAAGCAAUAUUACGAUAG | -0.276 ± 0.066 | 0.36 ± 0.092 |
| UGUUAGCAAUAUUACGUCGA | -0.909 ± 0.12 | 0.0206 ± 0.13 |
| GAACAGCAAUAUUACGUAAA | -0.541 ± 0.061 | 0.234 ± 0.075 |
| GAAAAGCAAUAUUACGGUCU | -0.737 ± 0.057 | -0.398 ± 0.072 |
| UGAAAGCAAUAUUACGCUUU | -4.77 ± 0.28 | -2.53 ± 0.26 |
| UUGCAGCAAUAUUACGUGCA | -2.15 ± 0.13 | -1.27 ± 0.12 |
| AGCUAGCAAUAUUACGAGUA | -1.65 ± 0.15 | -0.618 ± 0.12 |
| CAUGAGCAAUAUUACGGAUU | -3.76 ± 0.21 | -2.52 ± 0.26 |
| UACAAGCAAUAUUACGUUCG | -0.617 ± 0.074 | 0.321 ± 0.099 |
| AAAAAGCAAUAUUACGGGUG | -1.69 ± 0.062 | -0.982 ± 0.077 |
| UCUUAGCAAUAUUACGACUU | -3.52 ± 0.31 | -2.47 ± 0.31 |
| GGCAAGCAAUAUUACGCGGA | -0.732 ± 0.095 | -0.268 ± 0.094 |
| UCACAGCAAUAUUACGUUAU | -3.61 ± 0.12 | -2.75 ± 0.12 |
| UUGCAGCAAUAUUACGACUU | -0.403 ± 0.1 | -0.588 ± 0.08 |
| GACAAGCAAUAUUACGAGCU | -1.28 ± 0.08 | -0.288 ± 0.11 |
| UCUUAGCAAUAUUACGGGGG | -2.89 ± 0.39 | -2.51 ± 0.3 |
| UAAUAGCAAUAUUACGUGUU | -1.68 ± 0.14 | -1.97 ± 0.17 |
| CAAGAGCAAUAUUACGUCGU | -3.72 ± 0.23 | -2.66 ± 0.25 |

| Sequence | self-splicing fitness (ln) (30 °C) | self-splicing fitness (ln) (37 °C) |
| --- | --- | --- |
| CCAGAGCAAUAUUACGAGCG | -0.698 ± 0.084 | -0.775 ± 0.14 |
| CGUAAGCAAUAUUACGGACU | -0.0269 ± 0.14 | -0.0508 ± 0.14 |
| AUCCAGCAAUAUUACGUGGC | -3.98 ± 0.17 | -2.62 ± 0.16 |
| ACGGAGCAAUAUUACGCCCG | – | 0.0539 ± 0.32 |
| UUUCAGCAAUAUUACGUCGU | -3.77 ± 0.17 | -1.93 ± 0.11 |
| GGUGAGCAAUAUUACGCAUG | -1.48 ± 0.11 | -0.697 ± 0.15 |
| UCUUAGCAAUAUUACGUCCG | -1.41 ± 0.19 | -1.59 ± 0.23 |
| UAGCAGCAAUAUUACGACAC | – | -2.15 ± 0.33 |
| CUUGAGCAAUAUUACGGCAU | – | -1.93 ± 0.28 |
| ACCCAGCAAUAUUACGUGCA | -0.703 ± 0.067 | -0.601 ± 0.072 |
| CAAAAGCAAUAUUACGGACC | -3 ± 0.21 | -1.98 ± 0.2 |
| CGAAAGCAAUAUUACGAGAA | -2.51 ± 0.49 | – |
| UGUGAGCAAUAUUACGCCCG | -0.83 ± 0.47 | -1.17 ± 0.42 |
| UUGCAGCAAUAUUACGACGU | -3.09 ± 0.29 | -1.11 ± 0.14 |
| GCGGAGCAAUAUUACGUUGC | -4.4 ± 0.42 | -2.78 ± 0.34 |
| UCAAAGCAAUAUUACGGAAC | -4.3 ± 0.32 | – |
| UGGGAGCAAUAUUACGCAUC | -3 ± 0.32 | -2.58 ± 0.38 |
| GACAAGCAAUAUUACGUCUA | -2.01 ± 0.079 | -1.04 ± 0.082 |
| UCGGAGCAAUAUUACGCGUC | -2.14 ± 0.47 | – |
| GGUCAGCAAUAUUACGUUAU | -0.97 ± 0.092 | -0.158 ± 0.1 |
| CAUUAGCAAUAUUACGUGUU | -3.38 ± 0.18 | -2.69 ± 0.2 |
| UCACAGCAAUAUUACGGGAC | -2.77 ± 0.21 | -1.76 ± 0.18 |
| CCUGAGCAAUAUUACGAAGG | -3.87 ± 0.3 | -2.36 ± 0.32 |
| GCUUAGCAAUAUUACGUCGG | -1.89 ± 0.13 | -1.75 ± 0.18 |

— the supplement of paper PMC7877785
